According to ChEMBL document CHEMBL1130869, “Peptide-based inhibitors of the hepatitis C virus serine protease” (Bioorg Med Chem Lett, 1998):

Substrate: CC[C@H](C)[C@H](NC(=O)[C@H](CC(=O)O)NC(=O)[C@@H](N)CC(=O)O)C(=O)N[C@H](C(=O)N1CCC[C@H]1C(=O)N[C@@H](CS)C(=O)O)C(C)C
Assay: Km against NS3-4Apep protease determined by non-linear regression analysis of the velocity data
Format: protein-complex assay
Settings: Hepacivirus hominis

B1: Hepatitis C virus serine protease, NS3/NS4A (Hepatitis C virus), D2K2A8+A3EZI9 (protein)
chain 1: STWVLLGGVLAALAAYCLSVGCVVIVGYIELGGKPALVPDKEVCYQQYDEMEEC
chain 2: APITAYAQQTRGLLGCIITSLTGRDKNQVEGEVQIVSTAAQTFLATCINGVCWTVYHGAGTRTIASSKGPVIQMYTNVDQDLVGWPAPQGARSLTPCTCGSSDLYLVTRHADVIPVRRRGDGRGSLLSPRPISYLKGSSGGPLLCPAGHAVGIFRAAVCTRGVAKAVDFIPVEGLETTMRSPVFSDNSSPPAVPQSYQVAHLHAPTGSGKSTKVPAAYAAQGYKVLVLNPSVAATLGFGAYMSKAHGIDPNIRTGVRTITTGSPITYSTYGKFLADGGCSGGAYDIIICDECHSTDATSILGIGTVLDQAETAGARLTVLATATPPGSVTVPHPNIEEVALSTTGEIPFYGKAIPLEAIKGGRHLIFCHSKKKCDELAAKLVALGVNAVAYYRGLDVSVIPASGDVVVVATDALMTGFTGDFDSVIDCNTCVTQTVDFSLDPTFTIETTTLPQDAVSRTQRRGRTGRGKPGIYRFVTPGERPSGMFDSSVLCECYDAGCAWYELTPAETTVRLRAYMNTPGLPVCQDHLEFWEGVFTGLTHIDAHFLSQTKQSGENLPYLVAYQATVCARAQAPPPSWDQMWKCLIRLKPTLHGPTPLLYRLGAVQNEITLTHPITKYIMTCMSADLEVVT
B1 gave a Km of 37 µM.
